The record followed here is US20250215071A1, “Novel Mcl-1 inhibitor and combination of Mcl-1 and a BH3 mimetic, such as a Bcl-2 inhibitor” (NETRIS PHARMA, priority 2022, published 2025).

This assay concerns H322 cells. As to the kind of experiment: Xenografts of stable H322 cells in nude mice, tumor growth. The assay is classed as in vivo, NMRI nude mice. The note with it: 10 mg/Kg intravenously three times per week, vs Iso-mAb. How it is done:
FIG. 3. COMMD2 is required for UNC5B-induced cell death and tumor suppression. (A): Silencing COMMD2 inhibits UNC5B-induced DNA fragmentation. Stable Hela cells inducible for UNC5B were transfected with two distinct siRNA scramble (siCTRL) or targeting COMMD2 (siCOMMD2-1 and -2). Upon treatment for 18 hours with the indicated concentrations of doxycycline (Dox), DNA fragmentation was evaluated through FACS analysis (n=3, **** p<0.0001, Ordinary two-way ANOVA). Values are given as means±SEM. (B, C, D): Tumor growth inhibition driven by netrin-1 interference necessitates UNC5B and COMMD2. NMRI nude mice were engrafted with stable H322 cells, knock-down for luciferase (sgLUC, used as a non-targeting control), UNC5B (sgUNC5B) or COMMD2 (sgCOMMD2), generated with CRISPR-Cas-9-KRAB strategy. Tumors obtained from nude mice engrafted with stable H322 cells were lysed and gene expression was evaluated by quantitative RT-PCR (n=2-3, *p<0.05, Kruskal-Wallis test with Dunn's multiple comparisons test) (B). After tumor volume reached 50 mm^3, mice were intravenously treated three time per week with anti-netrin-1 (NP137) or control (Iso-mAb) antibodies and tumor growth was evaluated (n=10 mice/group, ^nsp>0.05, *p<0.05, Mann-Whitney test, two-tailed) (C). A histogram illustrating tumor volumes at 35 days after first treatment is indicated in (D) (n=10 mice/group, ^nsp>0.05, *p<0.05, *** p<0.001, Kruskal-Wallis test with uncorrected Dunn's test). (E). Silencing of UNC5B and COMMD2 restrains in vivo NP137-induced apoptosis. After sacrificing the mice, tumors were resected and apoptosis was quantified by immunostaining of active cleaved caspase-3. […]
5-week-old female athymic NMRI nude mice were obtained from Janvier Labs (Saint Bertevin, France). […] Tumor size was measured three times per week with a caliper. Tumor volume was calculated according to the formula v=0.5× (l×w2), where v is volume, l is length, and w is width. […]

B1: NP137: humanized anti-netrin-1 monoclonal antibody, VH SEQ ID NO: 22, VL SEQ ID NO: 16, human IgG1 (antibody, V domains shown)
VH: QVQLQQSGPGLVKPSQTLSLTCAISGYTFTSYNMHWVRQATGQGLEWMGAIYPGNGDTSYNQKFKGRLTISKDTSKNQVVLTMTNMDPVDTATYYCARGGTGFAYWGQG
VL: DIQMTQSPSSLSASVGDRVTITCKASQSVSNDVAWYQQKPGQAPRLLIYYASNRYTGIPPRFSGSGYGTDFTLTINNIESEDAAYYFCQQDYSSPWTFGQG
modifications: human IgG1 constant region; humanized variant; MISC_FEATURE - CDR according to IGMT
For the molecule B1, the tumor growth entry (H322 tumors knocked-out of COMMD2 (sgCOMMD2)) is “less sensitive”, the tumor growth entry (H322 tumors knocked-out of UNC5B (sgUNC5B)) is reported as “less sensitive” and the tumor growth result (control H322 cells (sgLUC)) is “strongly inhibited tumor growth”.
